pEC50: −log10 of the molar value.
How the values were obtained:
FcγRIIb receptor [1] = biological target: FcγRIIb receptor (UniProt P31994); assay: cell based competitive TR-FRET (CisBio); displacement of a fluorescently labeled antibody from the cell surface receptor
FcγRIIb receptor [2] = biological target: FcγRIIb receptor (UniProt P31994); assay: competitive TR-FRET
FcγRIIIa = FcγRIIIa (UniProt P08637); assay: competitive TR-FRET
FcγRIIa = FcγRIIa (UniProt P12318); assay: competitive TR-FRET

fold increase in binding against the Construct 4 (SIF3) control (FcγRIIb receptor [1]): > 300 fold
pEC50 (FcγRIIb receptor [2]): 10.78
pEC50 (FcγRIIIa): 7.57
pEC50 (FcγRIIa): 9.90
Substance: Construct 4-FcγRIIb+ mutant (from UniProt P01857 27-328; P0DOX5 223-448)
